Here are results for five molecules from PMC9490041 (2022).

Like-named read-outs stand apart in the source and are kept apart here. Ends that are not written are not given here. * marks the point of attachment. FITC = O=C1OC2(c3ccc(O)cc3Oc3cc(O)ccc32)c2ccc(NC(=S)*)cc21; Dansyl = CN(C)c1cccc2c(S(=O)(=O)*)cccc12

Assay [1] has as its target PSG (PSD-95), PDZ3-SH3-GK supramodule, wild type.
Assay [2] shares this target. Briefly: FP.

B1: 15 AA SynGap (DNS-AQRGSFPPWVQQTRV) (peptide)
chain: Dansyl-AQRGSFPPWVQQTRV
As usually defined, the Kd is a measure of binding affinity in units of concentration. Low values mean higher affinity, high ones lower affinity. B1: in assay [1], binding was characterised by a dissociation constant (Kd) of 550 nM.

B2: FITC-14 AA ADGRB1 (peptide)
peptide: {FITC}-PLVGQDIIDLQTEV
Turning to B2, binding in assay [2] was characterised by a dissociation constant (Kd) of 60000 nM.

B3: 15 AA FRPD4, dansylated (DNS-RDGCHRLPKIKETTV) (peptide)
chain: Dansyl-RDGCHRLPKIKETTV
With B3, the affinity in assay [1], expressed as Kd, was 760 nM.

B4: 15 AA INSY2, dansylated (DNS-KTESKKHGRWKLWFL) (peptide)
chain: Dansyl-KTESKKHGRWKLWFL
In the case of B4, the affinity in assay [1], expressed as Kd, was 161000 nM.

B5: 15 AA CRIPT, dansylated (DNS-GKKVLDTKNYKQTSV) (peptide)
peptide: Dansyl-GKKVLDTKNYKQTSV
Regarding B5, binding in assay [1] was put at a Kd of 490 nM.
